Data taken from patent US8940871 (University of California, dated 2015).

Legend:
[1] = biological target: PSCA (form used in Biacore not stated) (UniProt O43653); test: Biacore, apparent affinity
[2] = biological target: PSCA on cells (PSCA-transfected B-cell line, LNCaP prostate cancer cells, SKW-PSCA+ cells) (human) (UniProt O43653); test: immunoreactivity of radioiodinated diabody
[3] = biological target: T1, PSCA (form used in Biacore not stated) (UniProt O43653 12-86, limits assumed); test: method not stated; humanized antibody compared with murine 1G8
T1 construct: The antigen preparation for the Biacore measurements and for the 4-fold statement is not described; also called prostate stem cell antigen
T1 sequence (looked up): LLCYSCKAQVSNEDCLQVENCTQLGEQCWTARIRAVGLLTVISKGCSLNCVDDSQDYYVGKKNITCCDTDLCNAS

purified PSCA-Fc = biological target: T2, purified PSCA-Fc (UniProt O43653 12-86); test: competition ELISA, wells coated with PSCA-Fc
T2 construct: The construct is described only by a literature citation; not shown: Fc part not described
T2 sequence (looked up): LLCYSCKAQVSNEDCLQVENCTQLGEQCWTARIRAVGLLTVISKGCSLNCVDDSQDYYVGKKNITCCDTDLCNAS
Method: To examine the structural characteristics of the 2B3 minibody, SDS-PAGE was conducted under reducing and non-reducing conditions. The minibody migrated with a MW of ~47 kDa under reducing conditions and ~95 kDa under non-reducing (FIG. 2). […] The minibody's apparent affinity with respect to its intact antibody counterpart and the original mouse monoclonal antibody (1G8), was determined by competition ELISA.
PSCA relative binding affinity for the minibodies was determined by competition ELISA in which microtiter plate wells were coated with purified PSCA-Fc (Z Gu, T. Olafsen et al. 2006).

[4] = biological target: T1, PSCA (form used in Biacore not stated); test: Biacore, apparent affinity; parental diabody, not affinity matured

**Q.** How did the Kd [1] turn out when “affinity matured 2B3 anti-PSCA diabody (scFv dimer, eight amino acid linker)” was run?
**A.** The Kd was 1.89 nM.

**Q.** And the immunoreactivity [2]?
**A.** Its immunoreactivity is 22%.

B1: humanized 2B3 anti-PSCA antibody (intact) (antibody, V domains shown)
VH: EVQLVESGGGLVQPGGSLRLSCAASGFNIKDYYIHWVRQAPGKGLEWVAWIDPENGDTEFVPKFQGRATISADTSKNTAYLQMNSLRAEDTAVYYCKTGGFWGQGTLVTVSS
VL: DIQLTQSPSSLSASVGDRVTITCSASSSVRFIHWYQQKPGKAPKRLIYDTSKLASGVPSRFSGSGSGTDFTLTISSLQPEDFATYYCQQWSSSPFTFGQGTKVEIK
notes: Intact humanized antibody; also called intact 2B3 antibody; humanized 2B3 antibody
**Q.** For B1, which “fold reduction in affinity (against murine 1G8)” value [3] is on record?
**A.** Its value is 4 fold.

B2: humanized anti-PSCA minibody (2B3 scFv-CH3 dimer) (other)
chain: DIQLTQSPSSLSASVGDRVTITCSASSSVRFIHWYQQKPGKAPKRLIYDTSKLASGVPSRFSGSGSGTDFTLTISSLQPEDFATYYCQQWSSSPFTFGQGTKVEIKGSTSGGGSGGGSGGGGSSEVQLVESGGGLVQPGGSLRLSCAASGFNIKDYYIHWVRQAPGKGLEWVAWIDPENGDTEFVPKFQGRATISADTSKNTAYLQMNSLRAEDTAVYYCKTGGFWGQGTLVTVSSEPKSCDKTHTCPPCGGGSSGGGSGGQPREPQVYTLPPSRDELTKNQVSLTCLVKGFYPSDIAVEWESNGQPENNYKTTPPVLDSDGSFFLYSKLTVDKSRWQQGNVFSCSVMHEALHNHYTQKSLSLSPGK
notes: Covalent dimer of about 95 kDa; also called 2B3 minibody; parental minibody
**Q.** How did the “fold lower affinity than the intact 2B3 antibody” value (purified PSCA-Fc) turn out when B2 was run?
**A.** Its value is roughly 2 fold.

**Q.** And the “fold lower relative affinity than the murine antibody (1G8)” value (purified PSCA-Fc)?
**A.** The value was 9.2 fold.

B3: parental 2B3 anti-PSCA diabody (scFv dimer, eight amino acid linker) (scFv)
scFv: DIQLTQSPSSLSASVGDRVTITCSASSSVRFIHWYQQKPGKAPKRLIYDTSKLASGVPSRFSGSGSGTDFTLTISSLQPEDFATYYCQQWSSSPFTFGQGTKVEIKGGGSGGGSEVQLVESGGGLVQPGGSLRLSCAASGFNIKDYYIHWVRQAPGKGLEWVAWIDPENGDTEFVPKFQGRATISADTSKNTAYLQMNSLRAEDTAVYYCKTGGFWGQGTLVTVSS
notes: also called parental diabody; 2B3 diabody
**Q.** For B3, which Kd [4] is on record?
**A.** Its Kd is 5.41 nM.
